Publication doi:10.1101/2022.04.02.486817 (bioRxiv, 2022)

Experiments:
[1] = biological target: T1, Cμ2 (UniProt P84092 158-435); test: ITC
T1 sequence (looked up): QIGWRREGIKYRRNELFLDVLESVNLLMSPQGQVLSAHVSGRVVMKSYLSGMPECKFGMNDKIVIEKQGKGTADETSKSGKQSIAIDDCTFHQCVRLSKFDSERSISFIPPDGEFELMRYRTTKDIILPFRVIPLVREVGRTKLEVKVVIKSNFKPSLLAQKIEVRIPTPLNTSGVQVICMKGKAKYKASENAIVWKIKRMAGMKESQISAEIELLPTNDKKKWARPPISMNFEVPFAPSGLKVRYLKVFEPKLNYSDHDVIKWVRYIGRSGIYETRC

[2] = biological target: recombinant AP2 core (UniProt P18484 1-621; P63010 1-591; P84092 1-435; P62743 1-142); test: BLI
[3] = biological target: AP2 α-appendage (UniProt P17427 702-938); test: ITC
Sequence of AP2 α-appendage (P17427 702-938): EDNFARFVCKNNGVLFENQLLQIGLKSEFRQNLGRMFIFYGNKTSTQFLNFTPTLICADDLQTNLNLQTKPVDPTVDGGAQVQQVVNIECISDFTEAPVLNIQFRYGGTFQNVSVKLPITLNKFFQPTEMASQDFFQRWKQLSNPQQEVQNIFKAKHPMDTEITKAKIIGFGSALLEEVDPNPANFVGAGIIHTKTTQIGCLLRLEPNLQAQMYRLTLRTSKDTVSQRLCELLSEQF

Binder: NIPDVDEEGYSIKPETNQNDTKENHFYSSSDSDSEDEEPKKYRI (domain or fragment, human, UniProt Q0JRZ9 314-357, looked up) [FCHO2N1+N2]
- Kd [1]: ~25 µM

B1: FCHO1 linker (residues 316-444) (domain or fragment)
chain: TCPEVDEEGFTVRPDVTQNSTAEPSRFSSSDSDFDDEEPRKFYVHIKPAPARAPACSPEAAAAQLRATAGSLILPPGPGGTMKRHSSRDAAGKPQRPRSAPRTSSCAERLQSEEQVSKNLFGPPLESAF
- Kd [2]: 8.5 ± 2.2 µM

Binder: SEEQVSKNLFGPPLESAFDHEH [FCHO1 C peptide (residues 426-448 SEEQVSKNLFGPPLESAFDHEH)]
- Kd [3]: ~50 µM

B2: FCHO2 linker (residues 314-444) (domain or fragment)
chain: NIPDVDEEGYSIKPETNQNDTKENHFYSSSDSDSEDEEPKKYRIEIKPMHPNNSHHTMASLDELKVSIGNITLSPAISRHSPVQMNRNLSNEELTKSKPSAPPNEKGTSDLLAWDPLFGPSLDSSSSSSLT
- Kd [2]: 9.8 ± 1.5 µM
